System: Escherichia coli TOP10
Assay: shrunken log2 fold change of peptide-encoding DNA abundance (4.5 h post-induction vs induction); higher = less antimicrobial activity (less host growth inhibition)
Details: time post-induction: 4.5 h; library: site-saturation at positions 5, 18, 19, 20
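Also: peptides expressed intracellularly from a pBAD plasmid library in pooled LB shake-flask culture, induced with 0.3% L-arabinose, DNA abundance read by NGS, three biological replicates, DESeq2 with apeglm shrinkage.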

Row | Sequence | shrunken log2 fold change
1 | RRIRKRPPRLPRPRPRPNKYPRP | -0.168
2 | RRIRKRPPRLPRPRPRPNLIPRP | -0.494
3 | RRIRKRPPRLPRPRPRPNLKPRP | 0.286
4 | RRIRKRPPRLPRPRPRPNMAPRP | 0.00469
5 | RRIRKRPPRLPRPRPRPNMEPRP | -0.0503
6 | RRIRKRPPRLPRPRPRPNNLPRP | -0.218
7 | RRIRKRPPRLPRPRPRPNPVPRP | 0.0163
8 | RRIRKRPPRLPRPRPRPNRHPRP | -0.0212
9 | RRIRKRPPRLPRPRPRPNRQPRP | 1.09
10 | RRIRKRPPRLPRPRPRPNRRPRP | 0.0646
11 | RRIRKRPPRLPRPRPRPNSLPRP | -0.00111
12 | RRIRKRPPRLPRPRPRPNSRPRP | 0.149
13 | RRIRKRPPRLPRPRPRPNVAPRP | 0.387
14 | RRIRKRPPRLPRPRPRPNWIPRP | -0.2
15 | RRIRKRPPRLPRPRPRPNYRPRP | 0.123
16 | RRIRKRPPRLPRPRPRPPCEPRP | 0.509
17 | RRIRKRPPRLPRPRPRPPDAPRP | 1.35
18 | RRIRKRPPRLPRPRPRPPEIPRP | 0.131
19 | RRIRKRPPRLPRPRPRPPFKPRP | 0.498
20 | RRIRKRPPRLPRPRPRPPIEPRP | 0.223
21 | RRIRKRPPRLPRPRPRPPIVPRP | -0.121
22 | RRIRKRPPRLPRPRPRPPKAPRP | 0.609
23 | RRIRKRPPRLPRPRPRPPKFPRP | 0.514
24 | RRIRKRPPRLPRPRPRPPKNPRP | 0.546
25 | RRIRKRPPRLPRPRPRPPLKPRP | 0.419

Row | Sequence | shrunken log2 fold change
26 | RRIRKRPPRLPRPRPRPPLLPRP | 0.524
27 | RRIRKRPPRLPRPRPRPPMGPRP | 0.185
28 | RRIRKRPPRLPRPRPRPPNDPRP | 0.426
29 | RRIRKRPPRLPRPRPRPPNGPRP | 0.189
30 | RRIRKRPPRLPRPRPRPPPLPRP | 0.661
31 | RRIRKRPPRLPRPRPRPPPRPRP | 1.32
32 | RRIRKRPPRLPRPRPRPPQSPRP | 0.863
33 | RRIRKRPPRLPRPRPRPPRAPRP | 1.15
34 | RRIRKRPPRLPRPRPRPPRWPRP | 1.07
35 | RRIRKRPPRLPRPRPRPPSMPRP | 0.669
36 | RRIRKRPPRLPRPRPRPPSPPRP | 0.588
37 | RRIRKRPPRLPRPRPRPPWLPRP | 0.574
38 | RRIRKRPPRLPRPRPRPPYQPRP | 0.0608
39 | RRIRKRPPRLPRPRPRPQAAPRP | 0.451
40 | RRIRKRPPRLPRPRPRPQAIPRP | -0.0244
41 | RRIRKRPPRLPRPRPRPQANPRP | 0.066
42 | RRIRKRPPRLPRPRPRPQAVPRP | 0.0562
43 | RRIRKRPPRLPRPRPRPQCCPRP | -0.101
44 | RRIRKRPPRLPRPRPRPQDAPRP | 0.027
45 | RRIRKRPPRLPRPRPRPQDIPRP | -0.116
46 | RRIRKRPPRLPRPRPRPQFGPRP | 0.0962
47 | RRIRKRPPRLPRPRPRPQFKPRP | -0.037
48 | RRIRKRPPRLPRPRPRPQGHPRP | 0.0492
49 | RRIRKRPPRLPRPRPRPQGNPRP | 0.0216
50 | RRIRKRPPRLPRPRPRPQHYPRP | -0.0715

Row | Sequence | shrunken log2 fold change
51 | RRIRKRPPRLPRPRPRPQICPRP | -0.0742
52 | RRIRKRPPRLPRPRPRPQIYPRP | -0.159
53 | RRIRKRPPRLPRPRPRPQKIPRP | -0.0746
54 | RRIRKRPPRLPRPRPRPQKPPRP | 0.00856
55 | RRIRKRPPRLPRPRPRPQKQPRP | -0.0697
56 | RRIRKRPPRLPRPRPRPQLCPRP | 0.129
57 | RRIRKRPPRLPRPRPRPQLDPRP | 0.207
58 | RRIRKRPPRLPRPRPRPQMQPRP | 0.134
59 | RRIRKRPPRLPRPRPRPQMTPRP | 0.0443
60 | RRIRKRPPRLPRPRPRPQNHPRP | 2.37
61 | RRIRKRPPRLPRPRPRPQNNPRP | -0.417
62 | RRIRKRPPRLPRPRPRPQPDPRP | 0.459
63 | RRIRKRPPRLPRPRPRPQSCPRP | -0.0373
64 | RRIRKRPPRLPRPRPRPQSYPRP | 0.04
65 | RRIRKRPPRLPRPRPRPQTDPRP | -0.00442
66 | RRIRKRPPRLPRPRPRPQVCPRP | 0.138
67 | RRIRKRPPRLPRPRPRPQYCPRP | -0.0171
68 | RRIRKRPPRLPRPRPRPRATPRP | 1.17
69 | RRIRKRPPRLPRPRPRPRAWPRP | 0.389
70 | RRIRKRPPRLPRPRPRPRCHPRP | 0.237
71 | RRIRKRPPRLPRPRPRPRFGPRP | 0.217
72 | RRIRKRPPRLPRPRPRPRGYPRP | 0.166
73 | RRIRKRPPRLPRPRPRPRIFPRP | -0.0494
74 | RRIRKRPPRLPRPRPRPRKIPRP | 0.968
75 | RRIRKRPPRLPRPRPRPRLNPRP | 0.489

Row | Sequence | shrunken log2 fold change
76 | RRIRKRPPRLPRPRPRPRMGPRP | 0.149
77 | RRIRKRPPRLPRPRPRPRNCPRP | 0.0613
78 | RRIRKRPPRLPRPRPRPRNQPRP | 0.493
79 | RRIRKRPPRLPRPRPRPRPWPRP | 0.947
80 | RRIRKRPPRLPRPRPRPRQEPRP | 0.461
81 | RRIRKRPPRLPRPRPRPRQRPRP | 1.57
82 | RRIRKRPPRLPRPRPRPRQSPRP | 0.0892
83 | RRIRKRPPRLPRPRPRPRRWPRP | 0.717
84 | RRIRKRPPRLPRPRPRPRWGPRP | 0.358
85 | RRIRKRPPRLPRPRPRPRYNPRP | -0.312
86 | RRIRKRPPRLPRPRPRPRYSPRP | -0.705
87 | RRIRKRPPRLPRPRPRPRYVPRP | 0.0611
88 | RRIRKRPPRLPRPRPRPSAEPRP | 0.787
89 | RRIRKRPPRLPRPRPRPSAGPRP | 0.227
90 | RRIRKRPPRLPRPRPRPSCIPRP | -0.0677
91 | RRIRKRPPRLPRPRPRPSEEPRP | 0.1
92 | RRIRKRPPRLPRPRPRPSEKPRP | 0.428
93 | RRIRKRPPRLPRPRPRPSEMPRP | -0.17
94 | RRIRKRPPRLPRPRPRPSFTPRP | -0.272
95 | RRIRKRPPRLPRPRPRPSGSPRP | -0.0809
96 | RRIRKRPPRLPRPRPRPSGTPRP | 0.113
97 | RRIRKRPPRLPRPRPRPSGWPRP | -0.146
98 | RRIRKRPPRLPRPRPRPSHFPRP | 0.355
99 | RRIRKRPPRLPRPRPRPSHHPRP | 0.02
100 | RRIRKRPPRLPRPRPRPSHTPRP | -0.0409

Row | Sequence | shrunken log2 fold change
101 | RRIRKRPPRLPRPRPRPSIMPRP | -0.195
102 | RRIRKRPPRLPRPRPRPSINPRP | 0.0278
103 | RRIRKRPPRLPRPRPRPSKSPRP | -0.141
104 | RRIRKRPPRLPRPRPRPSMIPRP | -0.0957
105 | RRIRKRPPRLPRPRPRPSMNPRP | -0.00473
106 | RRIRKRPPRLPRPRPRPSNCPRP | -0.309
107 | RRIRKRPPRLPRPRPRPSQPPRP | 0.0235
108 | RRIRKRPPRLPRPRPRPSQWPRP | 0.144
109 | RRIRKRPPRLPRPRPRPSREPRP | 0.555
110 | RRIRKRPPRLPRPRPRPSRLPRP | 0.111
111 | RRIRKRPPRLPRPRPRPSSPPRP | -0.563
112 | RRIRKRPPRLPRPRPRPSSQPRP | 0.0821
113 | RRIRKRPPRLPRPRPRPSTFPRP | -0.00863
114 | RRIRKRPPRLPRPRPRPSVCPRP | -0.0364
115 | RRIRKRPPRLPRPRPRPSVPPRP | 0.21
116 | RRIRKRPPRLPRPRPRPTAPPRP | 1.05
117 | RRIRKRPPRLPRPRPRPTASPRP | 0.783
118 | RRIRKRPPRLPRPRPRPTCDPRP | -0.00872
119 | RRIRKRPPRLPRPRPRPTDHPRP | 0.375
120 | RRIRKRPPRLPRPRPRPTEEPRP | 2.12
121 | RRIRKRPPRLPRPRPRPTEYPRP | 0.0661
122 | RRIRKRPPRLPRPRPRPTHMPRP | 0.37
123 | RRIRKRPPRLPRPRPRPTKIPRP | 0.269
124 | RRIRKRPPRLPRPRPRPTLLPRP | 0.083
125 | RRIRKRPPRLPRPRPRPTLWPRP | 1.19

Row | Sequence | shrunken log2 fold change
126 | RRIRKRPPRLPRPRPRPTMHPRP | 0.455
127 | RRIRKRPPRLPRPRPRPTNTPRP | 1.79
128 | RRIRKRPPRLPRPRPRPTPEPRP | 0.611
129 | RRIRKRPPRLPRPRPRPTRIPRP | 0.312
130 | RRIRKRPPRLPRPRPRPTSEPRP | 0.79
131 | RRIRKRPPRLPRPRPRPTSGPRP | -0.064
132 | RRIRKRPPRLPRPRPRPTTVPRP | 0.331
133 | RRIRKRPPRLPRPRPRPTVAPRP | 0.814
134 | RRIRKRPPRLPRPRPRPTVCPRP | 0.765
135 | RRIRKRPPRLPRPRPRPTVKPRP | 0.19
136 | RRIRKRPPRLPRPRPRPTVWPRP | 0.548
137 | RRIRKRPPRLPRPRPRPTWDPRP | 0.289
138 | RRIRKRPPRLPRPRPRPTWMPRP | 0.466
139 | RRIRKRPPRLPRPRPRPTYAPRP | 0.431
140 | RRIRKRPPRLPRPRPRPVAHPRP | 0.353
141 | RRIRKRPPRLPRPRPRPVAMPRP | 1.67
142 | RRIRKRPPRLPRPRPRPVAWPRP | 0.315
143 | RRIRKRPPRLPRPRPRPVCPPRP | 0.0175
144 | RRIRKRPPRLPRPRPRPVCRPRP | 0.245
145 | RRIRKRPPRLPRPRPRPVDFPRP | 0.103
146 | RRIRKRPPRLPRPRPRPVDNPRP | -0.0705
147 | RRIRKRPPRLPRPRPRPVEHPRP | 0.455
148 | RRIRKRPPRLPRPRPRPVEKPRP | -0.0124
149 | RRIRKRPPRLPRPRPRPVENPRP | 0.198
150 | RRIRKRPPRLPRPRPRPVEVPRP | 0.0844
